How the values were obtained:
[1] = target: the molecule itself; experiment: non-reducing SDS-PAGE and anti-FLAG western blot of lysates
[2] = target: T1, His-tagged CodA, purified recombinant (E. coli, UniProt P25524 1-427); experiment: co-IP
T1 sequence (looked up): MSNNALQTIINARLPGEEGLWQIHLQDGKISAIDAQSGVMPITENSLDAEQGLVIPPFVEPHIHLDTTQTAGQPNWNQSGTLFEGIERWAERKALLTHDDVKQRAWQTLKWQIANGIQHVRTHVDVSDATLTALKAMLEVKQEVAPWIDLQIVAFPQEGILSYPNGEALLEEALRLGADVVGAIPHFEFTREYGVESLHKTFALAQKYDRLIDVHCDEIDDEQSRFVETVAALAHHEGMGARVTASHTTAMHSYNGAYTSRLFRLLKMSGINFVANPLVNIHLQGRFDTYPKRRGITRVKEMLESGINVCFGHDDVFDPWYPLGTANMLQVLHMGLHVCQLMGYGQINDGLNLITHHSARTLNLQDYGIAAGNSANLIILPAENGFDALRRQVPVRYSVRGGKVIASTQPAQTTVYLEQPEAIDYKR

B1: FLAG-tagged Hcp (hybrid-cluster protein), overexpressed in WT E. coli (enzyme, UniProt P75825 1-550, looked up)
chain: MFCVQCEQTIRTPAGNGCSYAQGMCGKTAETSDLQDLLIAALQGLSAWAVKAREYGIINHDVDSFAPRAFFSTLTNVNFDSPRIVGYAREAIALREALKAQCLAVDANARVDNPMADLQLVSDDLGELQRQAAEFTPNKDKAAIGENILGLRLLCLYGLKGAAAYMEHAHVLGQYDNDIYAQYHKIMAWLGTWPADMNALLECSMEIGQMNFKVMSILDAGETGKYGHPTPTQVNVKATAGKCILISGHDLKDLYNLLEQTEGTGVNVYTHGEMLPAHGYPELRKFKHLVGNYGSGWQNQQVEFARFPGPIVMTSNCIIDPTVGAYDDRIWTRSIVGWPGVRHLDGDDFSAVITQAQQMAGFPYSEIPHLITVGFGRQTLLGAADTLIDLVSREKLRHIFLLGGCDGARGERHYFTDFATSVPDDCLILTLACGKYRFNKLEFGDIEGLPRLVDAGQCNDAYSAIILAVTLAEKLGCGVNDLPLSLVLSWFEQKAIVILLTLLSLGVKNIVTGPTAPGFLTPDLLAVLNEKFGLRSITTVEEDMKQLLSA
Which “stoichiometry N” value [1] does the source give for B1 here?
The value was 2.

B2: His-tagged GAPDH, purified recombinant (enzyme, E. coli, UniProt P0A9B2 1-331, looked up)
chain: MTIKVGINGFGRIGRIVFRAAQKRSDIEIVAINDLLDADYMAYMLKYDSTHGRFDGTVEVKDGHLIVNGKKIRVTAERDPANLKWDEVGVDVVAEATGLFLTDETARKHITAGAKKVVMTGPSKDNTPMFVKGANFDKYAGQDIVSNASCTTNCLAPLAKVINDNFGIIEGLMTTVHATTATQKTVDGPSHKDWRGGRGASQNIIPSSTGAAKAVGKVLPELNGKLTGMAFRVPTPNVSVVDLTVRLEKAATYEQIKAAVKAAAEGEMKGVLGYTEDDVVSTDFNGEVCTSVFDAKAGIALNDNFVKLVSWYDNETGYSNKVLDLIAHISK
Does B2 bind [2]?
Result: binds

From publication PMC5999318 (Molecular cell, 2018)
